US20220251228A1 (SHANGHAI HANSOH BIOMEDICAL, published 2022)

T1: human BCMA on NCI-H929 tumor cells (human, UniProt Q02223 1-184)
T1 sequence (looked up): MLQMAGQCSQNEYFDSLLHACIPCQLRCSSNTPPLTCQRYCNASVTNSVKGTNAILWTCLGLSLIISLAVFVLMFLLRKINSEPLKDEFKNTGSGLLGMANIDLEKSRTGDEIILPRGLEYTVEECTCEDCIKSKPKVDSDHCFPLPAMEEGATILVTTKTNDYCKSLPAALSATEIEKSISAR


Biological target: T1, human BCMA on NCI-H929 tumor cells
Assay: cell-based or functional assay

| Endocytosis efficiency % (0.5 hour) | Endocytosis efficiency % (2 hours) | Binder |
| --- | --- | --- |
| 36.7% | 48% | humanized anti-BCMA antibody Ab2 (antibody, human IgG1, kappa, V domains shown) VH: QVQLVQSGAEVKKPGASVKVSCKASGYSFSDYEMHWVRQAPGQGLEWIGGIHPGSGGSAYNQKFKGRVTLTVDKSTSTAYMELSSLRSEDTAVYYCTRLDYGYSWAWFPYWGQGTLVTVSA VL: EIVLTQSPATLSLSPGERATLSCSASSSVIYMNWYQQKPGQSPKIWIYGISNLASGVPARFSGSGSGTDFTLTISSLEPEDFAVYYCQQRSSYPLTFGGGTKVEIKR |
| 36.6% | 49.5% | humanized anti-BCMA antibody Ab1 (antibody, human IgG1, kappa, V domains shown) VH: QVQLVQSGAEVKKPGASVKVSCKASGYSFSDYEMHWVRQAPGQGLEWMGGIHPGSGGSAYNQKFKGRVTMTRDTSTSTVYMELSSLRSEDTAVYYCTRLDYGYSWAWFPYWGQGTLVTVSA VL: EIVLTQSPATLSLSPGERATLSCSASSSVIYMNWYQQKPGQAPRLLIYGISNLASGIPARFSGSGSGTDFTLTISSLEPEDFAVYYCQQRSSYPLTFGGGTKVEIKR |
| 35.5% | 45.7% | humanized anti-BCMA antibody Ab3 (antibody, human IgG1, kappa, V domains shown) VH: QVQLVQSGAEVKKPGASVKVSCKASGYSFSDYEMHWVRQAPGQGLEWIGGIHPGSGGSAYNQKFKGKATLTVDKSTSTAYMELSSLRSEDTAVYYCTRLDYGYSWAWFPYWGQGTLVTVSA VL: EILLTQSPATLSLSPGERATLTCSASSSVIYMNWYQQKPGSSPKIWIYGISNLASGVPARFSGSGSGTSFTLTISSLEPEDFAVYYCQQRSSYPLTFGGGTKVEIKR |
